Test results taken from the supplement of paper PMC7877785.
± gives the uncertainty stated by the source.

Assay: self-splicing fitness, log relative to wild type (ln ratio); higher = more splicing; Tetrahymena group I intron in knt gene, E. coli kanamycin selection, DiMSum; sequences stand for … in CUCUCU…GGAGGGAAAAGUUAUCAGGCAUGCACCUGGUAGCUAGUCUUUAAACCAAUAGAUUGCAUCGGUUUAAAAGGCAAGACCGUCAAAUUGCGGGAAAGGGGUCAACAGCCGUUCAGUACCAAGUCUCAGGGGAAACUUUGAGAUGGCCUUGCAAAGGGUAUGGUAAUAAGCUGACGGACAUGGUCCUAACCACGCAGCCAAGUCCUAAGUCAACAGAUCUUCUGUUGAUAUGGAUGCAGUUCACAGACUAAAUGUCGGUCGGGGAAGAUGUAUUCUUCUCAUAAGAUAUAGUCGGACCUCUCCUUAAUGGGAGCUAGCGGAUGAAGUGAUGCAACACUGGAGCCGCUGGGAACUAAUUUGUAUGCGAAAGUAUAUUGAUUAGUUUUGGAGUACUCGUGGUCG
Method in brief: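 The eight P1ex-region nucleotides of an intron in the knt kanamycin-resistance gene on pET-22b(+) were all randomised and the library put into E. coli BL21(DE3). Six replicate transformations were grown overnight at 37°C or 30°C on LB agar with or without 25 μg/mL kanamycin, together with 100 μg/mL carbenicillin, 50 μM IPTG and 0.2% rhamnose. Colonies were pooled and amplicon-sequenced on an Illumina HiSeq 2500. Fitness from DiMSum is the error-weighted combination of wild-type-normalised replicate fold changes, kanamycin over none.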

| Sequence | self-splicing fitness (ln) (30 °C) | self-splicing fitness (ln) (37 °C) |
| --- | --- | --- |
| UGGAAGCAAUAUUACGUUCA | -0.654 ± 0.069 | 0.00518 ± 0.092 |
| UGGCAGCAAUAUUACGACAG | -1.02 ± 0.087 | 0.224 ± 0.11 |
| UGGCAGCAAUAUUACGACUG | -1.01 ± 0.071 | -0.812 ± 0.1 |
| UGGCAGCAAUAUUACGAGAU | -1.46 ± 0.21 |  |
| UGGCAGCAAUAUUACGAGGC | -2.12 ± 0.2 |  |
| UGGCAGCAAUAUUACGAGGU | -3.29 ± 0.23 | -2.53 ± 0.3 |
| UGGCAGCAAUAUUACGAGUA | -1.75 ± 0.15 | -1.46 ± 0.13 |
| UGGCAGCAAUAUUACGAUUC |  | -1.46 ± 0.32 |
| UGGCAGCAAUAUUACGAUUG | -1.07 ± 0.074 | 0.135 ± 0.093 |
| UGGCAGCAAUAUUACGCACU | -0.473 ± 0.068 | 0.399 ± 0.094 |
| UGGCAGCAAUAUUACGCGCA | -0.259 ± 0.14 | 0.284 ± 0.15 |
| UGGCAGCAAUAUUACGCUGG | -3.47 ± 0.33 | -2.53 ± 0.29 |
| UGGCAGCAAUAUUACGGCCA |  | -0.836 ± 0.45 |
| UGGCAGCAAUAUUACGGCUU | -0.209 ± 0.075 | 0.316 ± 0.098 |
| UGGCAGCAAUAUUACGGGAG | -3.13 ± 0.21 | -1.15 ± 0.14 |
| UGGCAGCAAUAUUACGGUGC | -3.3 ± 0.23 | -2.79 ± 0.32 |
| UGGCAGCAAUAUUACGUAAC | -3.2 ± 0.22 | -2.16 ± 0.26 |
| UGGCAGCAAUAUUACGUCAU | -4.47 ± 0.33 | -2.67 ± 0.26 |
| UGGCAGCAAUAUUACGUCCC | 0.385 ± 0.14 | -0.074 ± 0.19 |
| UGGCAGCAAUAUUACGUCGG | -0.425 ± 0.097 | -0.268 ± 0.13 |
| UGGCAGCAAUAUUACGUUCG | -0.337 ± 0.068 | 0.283 ± 0.096 |
| UGGGAGCAAUAUUACGCGAA | -1.59 ± 0.23 | -1.67 ± 0.34 |
| UGGGAGCAAUAUUACGCGGU | -3.43 ± 0.24 | -3.8 ± 0.33 |
| UGGGAGCAAUAUUACGGCUA | -0.66 ± 0.21 | -0.59 ± 0.15 |
| UGGGAGCAAUAUUACGGCUG | -1.09 ± 0.19 | -2.31 ± 0.26 |

| Sequence | self-splicing fitness (ln) (30 °C) | self-splicing fitness (ln) (37 °C) |
| --- | --- | --- |
| UGGGAGCAAUAUUACGGGGA | -2.94 ± 0.32 | -2.9 ± 0.29 |
| UGGGAGCAAUAUUACGGUCG | -1.47 ± 0.12 | -0.961 ± 0.2 |
| UGGGAGCAAUAUUACGGUGG | -2.67 ± 0.46 |  |
| UGGGAGCAAUAUUACGUAUU | -2.76 ± 0.33 | -1.91 ± 0.28 |
| UGGGAGCAAUAUUACGUCGA | -1.85 ± 0.39 | -1.21 ± 0.28 |
| UGGUAGCAAUAUUACGAAGG | -2.95 ± 0.28 | -1.39 ± 0.24 |
| UGGUAGCAAUAUUACGAGAC | -1.69 ± 0.24 | -2.71 ± 0.43 |
| UGGUAGCAAUAUUACGCACA | -0.0584 ± 0.068 | 0.436 ± 0.074 |
| UGGUAGCAAUAUUACGCCAG | -1.16 ± 0.28 | -0.742 ± 0.3 |
| UGGUAGCAAUAUUACGCCCG | 0.0173 ± 0.14 | -0.718 ± 0.17 |
| UGGUAGCAAUAUUACGCCUC | -1.82 ± 0.39 | -2.03 ± 0.39 |
| UGGUAGCAAUAUUACGCGCG | 0.0906 ± 0.2 | -0.0153 ± 0.25 |
| UGGUAGCAAUAUUACGCGUC | -3.94 ± 0.43 | -2.52 ± 0.35 |
| UGGUAGCAAUAUUACGCGUU | -2.76 ± 0.13 | -1.32 ± 0.12 |
| UGGUAGCAAUAUUACGCUCA | -0.626 ± 0.14 | 0.26 ± 0.18 |
| UGGUAGCAAUAUUACGCUGA | -1.07 ± 0.15 | -0.679 ± 0.11 |
| UGGUAGCAAUAUUACGGAAG | -2.16 ± 0.15 | -1.27 ± 0.18 |
| UGGUAGCAAUAUUACGGGCU | -2.27 ± 0.14 | -0.926 ± 0.11 |
| UGGUAGCAAUAUUACGGGGC |  | -2.37 ± 0.38 |
| UGGUAGCAAUAUUACGUCCU | 0.31 ± 0.2 | 0.713 ± 0.3 |
| UGGUAGCAAUAUUACGUGUC | -2.13 ± 0.46 |  |
| UGUAAGCAAUAUUACGAAAC | -4.22 ± 0.3 | -2.95 ± 0.25 |
| UGUAAGCAAUAUUACGAAGG | -2.14 ± 0.15 | -1.92 ± 0.25 |
| UGUAAGCAAUAUUACGACAG | -1.29 ± 0.11 | -0.146 ± 0.13 |
| UGUAAGCAAUAUUACGACGU | -1.29 ± 0.11 | -0.138 ± 0.13 |

| Sequence | self-splicing fitness (ln) (30 °C) | self-splicing fitness (ln) (37 °C) |
| --- | --- | --- |
| UGUAAGCAAUAUUACGAGUA | -1.48 ± 0.11 | -0.65 ± 0.12 |
| UGUAAGCAAUAUUACGAGUG | -2.02 ± 0.13 | -0.484 ± 0.14 |
| UGUAAGCAAUAUUACGAUGG | -2.9 ± 0.13 | -0.756 ± 0.12 |
| UGUAAGCAAUAUUACGCAAA | -2.11 ± 0.16 | -0.927 ± 0.13 |
| UGUAAGCAAUAUUACGCGGC |  | -1.13 ± 0.27 |
| UGUAAGCAAUAUUACGCGGU | -3.22 ± 0.21 | -2.15 ± 0.29 |
| UGUAAGCAAUAUUACGGACC | -1.18 ± 0.18 | -0.408 ± 0.18 |
| UGUAAGCAAUAUUACGGGUA | -1.61 ± 0.22 | -0.187 ± 0.16 |
| UGUAAGCAAUAUUACGGUCC | -2.16 ± 0.14 | -1.29 ± 0.14 |
| UGUAAGCAAUAUUACGGUUU | -2.96 ± 0.16 | -1.68 ± 0.18 |
| UGUAAGCAAUAUUACGUACG | -0.346 ± 0.057 | -0.333 ± 0.067 |
| UGUAAGCAAUAUUACGUAGU | -3.01 ± 0.21 | -0.923 ± 0.18 |
| UGUAAGCAAUAUUACGUAUG | -1.11 ± 0.093 | -0.727 ± 0.12 |
| UGUCAGCAAUAUUACGAAAC |  | -0.978 ± 0.25 |
| UGUCAGCAAUAUUACGAAGA | -0.706 ± 0.11 | -0.132 ± 0.11 |
| UGUCAGCAAUAUUACGACAA | -1.02 ± 0.097 | -0.118 ± 0.1 |
| UGUCAGCAAUAUUACGACCG | -0.0146 ± 0.18 | 0.122 ± 0.25 |
| UGUCAGCAAUAUUACGAGGA | -2.46 ± 0.22 | -0.886 ± 0.15 |
| UGUCAGCAAUAUUACGAGGG | -3.72 ± 0.2 | -1.37 ± 0.14 |
| UGUCAGCAAUAUUACGAGUG | -1.07 ± 0.085 | -0.261 ± 0.094 |
| UGUCAGCAAUAUUACGAUUC | -1.84 ± 0.11 | -0.335 ± 0.13 |
| UGUCAGCAAUAUUACGCAAC | -2.59 ± 0.33 | -1.26 ± 0.28 |
| UGUCAGCAAUAUUACGCACG | -1.06 ± 0.12 | -0.829 ± 0.13 |
| UGUCAGCAAUAUUACGCCAA | -0.858 ± 0.13 | -0.585 ± 0.13 |
| UGUCAGCAAUAUUACGGAAA | -1.11 ± 0.088 | -0.145 ± 0.086 |

| Sequence | self-splicing fitness (ln) (30 °C) | self-splicing fitness (ln) (37 °C) |
| --- | --- | --- |
| UGUCAGCAAUAUUACGGAAG | -2.37 ± 0.14 | -0.569 ± 0.15 |
| UGUCAGCAAUAUUACGGCUU | -0.428 ± 0.12 | -0.319 ± 0.17 |
| UGUCAGCAAUAUUACGGGGU | -2.91 ± 0.18 | -2.49 ± 0.23 |
| UGUCAGCAAUAUUACGGUGC | -3.51 ± 0.43 | -2.74 ± 0.38 |
| UGUCAGCAAUAUUACGUAGA | -0.492 ± 0.057 | -0.604 ± 0.081 |
| UGUCAGCAAUAUUACGUCGC | -1.14 ± 0.25 |  |
| UGUCAGCAAUAUUACGUGUC |  | -2.37 ± 0.21 |
| UGUCAGCAAUAUUACGUUCA | -0.292 ± 0.1 | -0.052 ± 0.14 |
| UGUGAGCAAUAUUACGAAAA | -1.47 ± 0.35 | -1.31 ± 0.46 |
| UGUGAGCAAUAUUACGAACG | -0.83 ± 0.075 | 0.261 ± 0.086 |
| UGUGAGCAAUAUUACGAAGA | -2.48 ± 0.37 |  |
| UGUGAGCAAUAUUACGAAGC | -2.81 ± 0.34 | -2.08 ± 0.47 |
| UGUGAGCAAUAUUACGAUAU | -2.31 ± 0.22 | -1.66 ± 0.37 |
| UGUGAGCAAUAUUACGAUGA | -2.75 ± 0.17 | -2.21 ± 0.17 |
| UGUGAGCAAUAUUACGAUUA | -1.17 ± 0.22 | -1.53 ± 0.2 |
| UGUGAGCAAUAUUACGCAGU |  | -1.74 ± 0.26 |
| UGUGAGCAAUAUUACGCCGU |  | -1.71 ± 0.47 |
| UGUGAGCAAUAUUACGCGCA | -1.34 ± 0.44 | -0.203 ± 0.48 |
| UGUGAGCAAUAUUACGCGGU | -3.67 ± 0.37 | -0.807 ± 0.33 |
| UGUGAGCAAUAUUACGCUUC | -2.97 ± 0.39 |  |
| UGUGAGCAAUAUUACGGACG | -0.792 ± 0.12 | -0.0879 ± 0.18 |
| UGUGAGCAAUAUUACGGUAU | -3.87 ± 0.34 |  |
| UGUGAGCAAUAUUACGUAAC | -3.16 ± 0.28 | -2.25 ± 0.38 |
| UGUGAGCAAUAUUACGUAUA | -3.5 ± 0.4 | -2.03 ± 0.21 |
| UGUGAGCAAUAUUACGUCCG | -0.363 ± 0.12 | -0.0626 ± 0.17 |
